From patent US20250011433A1 (GLIKNIK, published 2025)
Changes are numbered by the printed parent chain. Names and notes keep the numbering of the source. Where two headings read alike, the source gives them in different places.

What was measured:
FcγRI [1] = target: T1, FcγRI (UniProt P12314 16-288); assay: BLI (Octet); legend: - indicates no binding
T1 construct: also called CD64
Experimental: (§1) Binding of complement-preferential stradomers or parent stradomer G045c to FcγRI, FcγRIIb, FcγRIIIa, FcγRIIa, or FcRn was assessed. RU values of dissociation were measured by biolayer interferometry using a ForteBio Octet instrument. His-tagged receptor proteins were bound to the sensor tip in 1× kinetic analysis buffer from ForteBio after which the on rate of the receptor/protein was measured by transferring the sensor tip to a 1× kinetics buffer containing the purified stradomer of choice. Off rate was measured by transferring the sensor tip to a 1× kinetics buffer, and RU value was calculated from the measured maximum binding using the ForteBio software. Biolayer interferometry detects the binding between a ligand immobilized on the biosensor tip surface and an analyte in solution. When binding occurs it produces an increase in optical thickness at the biosensor tip, which results in a wavelength shift (detected as a response unit of “RU”). The maximum binding level (RU max) is the maximum possible amount of sample binding at equilibrium that saturates the amount of ligand on the sensor surface. The RU 300 is the residual sample binding after 300 seconds of dissociation and is useful to characterize the rate of dissociation of the test article from the test ligand.

FcγRIIIa = FcγRIIIa (UniProt P08637 17-208); assay: BLI (Octet); legend: - indicates no binding
Experimental: as §1

FcγRIIb [2] = target: T2, FcγRIIb (UniProt P31994 46-217, limits assumed); assay: BLI (Octet)
T2 sequence (looked up): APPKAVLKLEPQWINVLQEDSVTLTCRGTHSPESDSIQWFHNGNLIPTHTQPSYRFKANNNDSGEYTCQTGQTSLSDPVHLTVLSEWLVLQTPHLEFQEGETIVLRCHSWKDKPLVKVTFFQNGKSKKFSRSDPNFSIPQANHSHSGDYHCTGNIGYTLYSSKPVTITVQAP
Experimental: as §1

C1q [3] = target: T3, C1q (UniProt P02745 23-245; P02746 28-253; P02747 29-245); assay: ELISA on coated C1q
T3 construct: bought C1q coated on ELISA plates at 1 µg/ml; also called complement C1q; complement factor C1q
Experimental: For C1q binding, 96 well plates were coated with C1q (Sigma Cat #: C1740 1 μg/ml) overnight in PBS. After coating, plates were washed 3 times with standard wash buffer (iX PBS+0.05% Tween 20) and blocked with blocking buffer (1% BSA+1× PBS+0.05% Tween 20) for 2 hours at RT. Following blocking, plates were incubated with compound diluted in blocking buffer 100 μL/well and washed 3 times with standard washing buffer. C1q-bound compound was detected by incubation with 1:5000 biotinylated mouse anti-human IgG1(Cat #555869, BD Biosciences) and Streptavidin-HRP (Cat #: 7100-05 Southern Biotech) (100 μl/well) for 1 hour at room temperature followed by washing 3 times with washing buffer, after which color was developed using the standard TMB method according to manufacturer's protocol for 15 minutes. Absorbance was read at 450 nm.

FcγRI [4] = target: T1, FcγRI; assay: BLI (Octet)
Experimental: as §1

FcγRIIa = target: T4, FcγRIIa (UniProt P12318 36-218, limits assumed); assay: BLI (Octet); legend: - indicates no binding
T4 sequence (looked up): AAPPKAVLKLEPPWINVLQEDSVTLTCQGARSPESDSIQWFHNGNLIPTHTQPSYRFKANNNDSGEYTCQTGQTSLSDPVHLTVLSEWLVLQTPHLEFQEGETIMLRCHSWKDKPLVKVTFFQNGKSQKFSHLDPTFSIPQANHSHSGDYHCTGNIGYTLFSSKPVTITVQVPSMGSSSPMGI
Experimental: as §1

C1q [5] = target: T3, C1q; assay: ELISA on coated C1q; remark: listed apart in the source
FcγRI [6] = target: T1, FcγRI; assay: BLI (Octet); remark: listed apart in the source
FcγRIIb [7] = target: T2, FcγRIIb; assay: BLI (Octet); remark: listed apart in the source
FcγRIIb [8] = target: T2, FcγRIIb; assay: BLI (Octet); legend: - indicates no binding
Experimental: as §1

C3 complement component = target: T5, C3 complement component (UniProt P01024 23-1663); assay: ELISA on coated C3
T5 construct: bought protein coated on ELISA plates at 1 µg/ml

mouse FcγRIII = target: T6, mouse FcγRIII (mouse, UniProt P08508 31-215, limits assumed); assay: BLI (Octet), FIG. 19 bottom panels
T6 sequence (looked up): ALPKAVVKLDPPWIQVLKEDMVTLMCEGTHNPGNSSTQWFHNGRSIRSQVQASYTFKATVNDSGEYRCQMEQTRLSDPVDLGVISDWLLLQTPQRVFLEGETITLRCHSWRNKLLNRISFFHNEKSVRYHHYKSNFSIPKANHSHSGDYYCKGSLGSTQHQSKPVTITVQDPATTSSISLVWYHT

mouse FcγRIV = target: T7, mouse FcγRIV (mouse, UniProt A0A0B4J1G0 21-203); assay: BLI (Octet), FIG. 19 bottom panels
T7 construct: not shown: any purification tag (e.g. His tag) on the soluble recombinant receptor used in biolayer interferometry; not described in the passages seen
T7 sequence: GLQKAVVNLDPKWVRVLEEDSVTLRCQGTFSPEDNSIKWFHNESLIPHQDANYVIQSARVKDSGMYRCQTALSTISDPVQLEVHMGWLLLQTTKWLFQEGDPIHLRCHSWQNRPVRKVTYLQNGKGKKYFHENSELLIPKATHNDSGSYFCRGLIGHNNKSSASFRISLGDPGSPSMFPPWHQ

mouse FcγRIIb = target: T8, mouse FcγRIIb (mouse, UniProt P08101 30-207, limits assumed); assay: BLI (Octet), FIG. 19 bottom panels
T8 sequence (looked up): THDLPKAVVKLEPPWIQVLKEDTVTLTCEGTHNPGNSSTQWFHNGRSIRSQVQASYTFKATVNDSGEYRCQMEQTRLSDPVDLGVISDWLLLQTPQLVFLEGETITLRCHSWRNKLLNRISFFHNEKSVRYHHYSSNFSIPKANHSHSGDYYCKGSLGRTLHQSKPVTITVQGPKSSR

C1q [9] = target: T3, C1q; assay: ELISA on coated C1q; remark: listed apart in the source

T3 sequence (P02745 23-245 limits assumed, chain 1 of 3): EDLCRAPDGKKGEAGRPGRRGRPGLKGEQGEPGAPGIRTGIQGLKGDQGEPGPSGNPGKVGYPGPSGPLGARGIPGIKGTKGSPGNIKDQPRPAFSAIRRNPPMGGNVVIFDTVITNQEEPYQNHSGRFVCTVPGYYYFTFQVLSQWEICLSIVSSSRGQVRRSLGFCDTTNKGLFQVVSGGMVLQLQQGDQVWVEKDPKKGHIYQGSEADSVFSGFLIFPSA
T3 sequence (P02746 28-253 limits assumed, chain 2 of 3): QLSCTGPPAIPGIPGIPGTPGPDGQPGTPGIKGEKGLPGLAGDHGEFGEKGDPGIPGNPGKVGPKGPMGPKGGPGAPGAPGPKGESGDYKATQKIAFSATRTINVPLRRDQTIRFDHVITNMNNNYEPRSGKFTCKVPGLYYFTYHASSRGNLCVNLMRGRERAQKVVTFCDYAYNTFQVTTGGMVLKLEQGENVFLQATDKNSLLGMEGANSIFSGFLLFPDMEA
T3 sequence (P02747 29-245 limits assumed, chain 3 of 3): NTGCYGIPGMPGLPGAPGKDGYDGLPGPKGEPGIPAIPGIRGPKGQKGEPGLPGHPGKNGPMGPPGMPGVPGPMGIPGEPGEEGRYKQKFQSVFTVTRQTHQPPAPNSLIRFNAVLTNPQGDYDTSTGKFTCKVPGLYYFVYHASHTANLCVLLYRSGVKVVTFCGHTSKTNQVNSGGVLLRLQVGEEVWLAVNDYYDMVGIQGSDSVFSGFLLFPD
T1 sequence (P12314 16-288 limits assumed): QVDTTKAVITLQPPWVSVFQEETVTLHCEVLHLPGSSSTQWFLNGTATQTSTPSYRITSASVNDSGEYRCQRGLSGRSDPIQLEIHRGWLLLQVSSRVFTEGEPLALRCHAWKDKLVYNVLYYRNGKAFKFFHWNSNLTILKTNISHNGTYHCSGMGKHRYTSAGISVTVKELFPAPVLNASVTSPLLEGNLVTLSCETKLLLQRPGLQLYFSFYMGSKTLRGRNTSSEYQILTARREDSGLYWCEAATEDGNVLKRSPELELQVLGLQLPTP
FcγRIIIa, sequence (P08637 17-208 limits assumed): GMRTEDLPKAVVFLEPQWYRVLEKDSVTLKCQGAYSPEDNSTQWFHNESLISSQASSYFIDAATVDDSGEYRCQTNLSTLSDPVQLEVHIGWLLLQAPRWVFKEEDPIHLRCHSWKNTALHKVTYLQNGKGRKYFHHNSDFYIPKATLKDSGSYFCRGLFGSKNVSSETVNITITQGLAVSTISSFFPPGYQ

B1: G1022 (Fc fusion)
chain: EPKSCDKTHTCPPCPAPPVAGPSVFLFPPKPKDTLMISRTPEVTCVVVDVEFEDPEVKFNWYVDGVEVHNAKTKPREEQYASTYRVVSVLTVLHQDWLNGKEYKCKVTNKALPAPIEKTISKAKGQPREPQVYTLPPSRDELTKNQVSLTCLVKGFYPSDIAVEWESNGQPENNYKTTPPVLDSDGSFFLYSKLTVDKSRWQQGNVFSCSVMHEALHNHYTQKSLSLSPGKERKCCVECPPCP
notes: G045c background, E233P/L234V/L235A/S267E/H268F/N297A/S324T, G236 deleted; leader 1-20 cleaved
binding result (FcγRI [1]): no binding
binding result (FcγRIIIa): no binding

B2: G1050 (Fc fusion)
chain: B1 chain with L112F
notes: G045c background, E233P/L234V/L235A/S267E/H268F/N297A/S324T/L328F, G236 deleted; leader 1-20 cleaved
binding result (FcγRIIb [2]): binds
binding result (FcγRI [1]): no binding
binding result (FcγRIIIa): no binding
binding result (C1q [3]): binds

B3: G994 (Fc fusion)
chain: EPKSCDKTHTCPPCPAPPLLRGPSVFLFPPKPKDTLMISRTPEVTCVVVDVEFEDPEVKFNWYVDGVEVHNAKTKPREEQYNSTYRVVSVLTVLHQDWLNGKEYKCKVTNKALPAPIEKTISKAKGQPREPQVYTLPPSRDELTKNQVSLTCLVKGFYPSDIAVEWESNGQPENNYKTTPPVLDSDGSFFLYSKLTVDKSRWQQGNVFSCSVMHEALHNHYTQKSLSLSPGKERKCCVECPPCP
notes: G045c background, E233P/G236R/S267E/H268F/S324T; leader 1-20 cleaved; also called G994 (DEL); G994 (EEM)
binding result (FcγRI [4]): binds
binding result (FcγRIIb [2]): binds
binding result (FcγRIIa): no binding
binding result (FcγRIIIa): no binding
binding result (C1q [3]): binds

B4: G1031 (Fc fusion)
chain: B3 chain with D50A, N82A
binding result (C1q [5]): no binding

B5: G998 (Fc fusion)
chain: B3 chain with P18E, R21G, N82A
notes: G045c background, S267E/H268F/N297A/S324T; leader 1-20 cleaved; also called G998 (DEL); G998 (EEM)
binding result (FcγRI [4]): binds
binding result (FcγRIIb [2]): binds
binding result (FcγRIIa): no binding
binding result (FcγRIIIa): no binding
binding result (C1q [3]): binds

B6: G1045 (Fc fusion)
chain: B3 chain with P18E, R21G, P23D, D50P
binding result (FcγRI [6]): binds
binding result (C1q [5]): no binding

B7: G1047 (Fc fusion)
chain: B3 chain with P18E, R21G, P23D, L113F
binding result (FcγRI [6]): binds
binding result (FcγRIIb [7]): binds

B8: G1033 (Fc fusion)
chain: B3 chain with P18E, L19A, L20A, R21G, N82A
notes: G045c background, L234A/L235A/S267E/H268F/N297A/S324T; leader 1-20 cleaved; also called G1033 (DEL); G1033 (EEM)
binding result (FcγRI [4]): binds
binding result (FcγRIIIa): no binding
binding result (FcγRIIb [8]): no binding
binding result (C1q [3]): binds

B9: G996 (Fc fusion)
chain: B3 chain with P18E
notes: G045c background, G236R/S267E/H268F/S324T; leader 1-20 cleaved
binding result (FcγRI [4]): binds
binding result (FcγRIIb [2]): binds
binding result (C3 complement component): no binding (tested: 100 µg/ml top concentration)
binding result (mouse FcγRIII): no binding
binding result (mouse FcγRIV): no binding
binding result (mouse FcγRIIb): no binding
binding result (FcγRIIIa): no binding
binding result (C1q [3]): binds

B10: G999 (Fc fusion)
chain: ERKCCVECPPCPEPKSCDKTHTCPPCPAPELLRGPSVFLFPPKPKDTLMISRTPEVTCVVVDVEFEDPEVKFNWYVDGVEVHNAKTKPREEQYNSTYRVVSVLTVLHQDWLNGKEYKCKVTNKALPAPIEKTISKAKGQPREPQVYTLPPSRDELTKNQVSLTCLVKGFYPSDIAVEWESNGQPENNYKTTPPVLDSDGSFFLYSKLTVDKSRWQQGNVFSCSVMHEALHNHYTQKSLSLSPGK
notes: G019 background, G236R/S267E/H268F/S324T
binding result (FcγRI [6]): binds
binding result (FcγRIIb [7]): binds
binding result (C1q [9]): no binding

B11: G1024 (Fc fusion)
chain: B10 chain with R33G, P35D, D153E, L155M
notes: G019 background, P238D/S267E/H268F/S324T
binding result (C1q [5]): no binding
